In US20220119513A1 (ZOETIS SERVICES, published 2022):
Numbering of substitutions follows the chain as printed. In names and notes the source's numbering stands.

T1: TGFβ3 (R&D Systems) (Homo sapiens (Human), UniProt P10600 301-412, Active TGFβ3 is a disulfide-linked homodimer of this chain; one copy is given.)
T1 construct: also called TGFB3
T1 sequence: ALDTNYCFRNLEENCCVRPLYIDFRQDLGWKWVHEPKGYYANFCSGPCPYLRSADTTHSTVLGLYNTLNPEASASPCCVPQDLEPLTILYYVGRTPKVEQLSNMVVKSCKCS

T2: TGFβ2 (R&D Systems)
T2 sequence (P61812 303-414, species assumed, looked up): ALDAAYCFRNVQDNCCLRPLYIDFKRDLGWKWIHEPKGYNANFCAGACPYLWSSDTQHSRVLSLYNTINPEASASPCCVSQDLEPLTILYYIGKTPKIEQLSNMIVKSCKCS

B1: felHclb_heterochimera-14 (antibody, V domains shown)
VH: QVLLVQSGAEVRTPGASVKIFCKASGYIFITYYMHWVRQSPAQGLEWMGQIFPASGSTNYNEMFEGRLTLTADTSTNTAYMELSSLRSADTAMYYCARGDGNYALDAMDYWGQGTSVTVSS
VL: DIVLTQTPASLAVSLGQRATISCRASESVDSYGNSFMHWYQQKSGQPPKLLIYLASNLESGVPARFSGSGSRTDFTLTIDPVEADDAATYYCQQNNEDPLTFGAGTK
notes: hetero-pairing; also called felHclbH1-1x/mHclbVL
B2: felHclb_heterochimera-15 (antibody, V domains shown)
VH: QVLLVQSGAEVRKPGASVKIFCKASGYTFITYYMHWLRQAPEQGLEWMGRIFPASGSTSYAQKFQGRLTLTADTSTNTAYMELSSLRSADTAMYYCARGDGNYALDAMDYWGQGALVTVSS
VL: B1 VL
notes: hetero-pairing; also called felHclbH618s/mHclbVL
B3: felHclb_heterochimera-12 (antibody, V domains shown)
VH: B1 VH with Q50S, N59S, N61A, E62Q, M63K, E65Q
VL: B1 VL
notes: hetero-pairing; also called felHclbH1-1/mHclbVL
B4: felHclb_heterochimera-16 (antibody, V domains shown)
VH: B2 VH with R50Q, S59N, A61N, Q62E, K63M, Q65E
VL: B1 VL
notes: hetero-pairing; also called felHclbH618x/mHclbVL
B5: felHclb_heterochimera-13 (antibody, V domains shown)
VH: B1 VH with T13R, V37L, S40A, L45F, N77D, M93V, Q113H, S116I
VL: B1 VL
notes: hetero-pairing; also called felHclbH636x/mHclbVL
B6: affinity matured HcLb 259 (antibody, V domains shown)
VH: EVQLVQSGAEVKKPGASVKVSCKTSGYTFITYWMNWVRQAPGAGLDWMGQIFPAWGMTNYNEMFEGRVTLTADTSTSTAYMELSSLRAGDIAVYYCARGYGNYALDAMDYWGQGTLVTVSS
VL: DIVMTQTPPSLSVSPRETASISCRASESVDSYGNSFMHWYLQKPGQSPQLLIYLASNLESGVSDRFSGSGSGTDFTLRISRVEANDTGVYYCQQNNEDPLTFGQ
notes: full IgG; constant regions not restated
B7: felHclb_heterochimera-1 (antibody, V domains shown)
VH: B2 VH with K13R, T28I, E42A, L45F, R50S, N77D, M93V, Q113H, A115T, L116I
VL: B6 VL
notes: hetero-pairing
B8: affinity matured HcLb 260 (antibody, V domains shown)
VH: SEVQLVQSGAEVKKPGASVKVSCKTSGYTFITYWMNWVRQAPGAGLDWMGQIFPAWGVTNYNEMFEGRVTLTADTSTSTAYMELSSLRAGDIAVYYCARGYGNYALDAMDYWGQGTLVTVSS
VL: B6 VL
notes: as for B6
B9: felHclb_heterochimera-5 (antibody, V domains shown)
VH: B2 VH
VL: B6 VL
notes: hetero-pairing
B10: felHclb_heterochimera-4 (antibody, V domains shown)
VH: B1 VH
VL: B6 VL
notes: hetero-pairing
B11: affinity matured HcLb 263 (antibody, V domains shown)
VH: B6 VH with T28I, M57S
VL: B6 VL
notes: as for B6
B12: affinity matured HcLb 261 (antibody, V domains shown)
VH: B6 VH with I30M, M57S
VL: B6 VL
notes: as for B6
B13: felHclb_heterochimera-2 (antibody, V domains shown)
VH: B1 VH with Q50S, N59S, N61A, E62Q, M63K, E65Q
VL: B6 VL
notes: hetero-pairing
B14: affinity matured HcLb 262 (antibody, V domains shown)
VH: B6 VH with T31K, M57S
VL: B6 VL
notes: as for B6
B15: Can-SL501-VH3 D108K / Can-SL501-VL2 (antibody, V domains shown)
VH: EVQLVESGGDLVKPGGSLRLSCVASGFTFSSYGMHWVRQAPGKELEWVAVISYDGSIKYYADAVKGRFTISRDNAKNTLYLQMNSLRAEDTAVYYCARTGEYSGYDTKPQYSWGQGTTVTVSS
VL: EIVMTQSPGSLAGSAGESVSINCRASQGIGDDLGWYQQKPGERPKLLIYGTSTLQSGVPARFSSSGSGTDFTLTINNLQAEDVGDYYCLQDSNYPLTFGAGTK

Key:
TGFβ3 (R&D Systems) [1] = target: T1, TGFβ3 (R&D Systems); test: SPR
TGFβ3 (R&D Systems) [2] = target: T1, TGFβ3 (R&D Systems); test: cell-based or functional assay
TGFβ2 (R&D Systems) [3] = target: T2, TGFβ2 (R&D Systems); test: cell-based or functional assay
TGFβ1 (R&D Systems) [4] = test: cell-based or functional assay
TGFβ3 (R&D Systems) [5] = target: T1, TGFβ3 (R&D Systems); test: SPR full titration
TGFβ2 (R&D Systems) [6] = target: T2, TGFβ2 (R&D Systems); test: SPR full titration
TGFβ1 (R&D Systems) [7] = target: T3, TGFβ1 (R&D Systems); test: SPR full titration
T3 construct: also called TGFB1

TGFβ1 (R&D Systems) [8] = target: T3, TGFβ1 (R&D Systems); test: SPR full titration; remark: listed apart in the source
TGFβ1 (R&D Systems) [9] = target: T3, TGFβ1 (R&D Systems); test: cell-based or functional assay; remark: listed apart in the source
TGFβ1 (R&D Systems) [10] = target: T3, TGFβ1 (R&D Systems); test: single point SPR

T3 sequence (P01137 279-390): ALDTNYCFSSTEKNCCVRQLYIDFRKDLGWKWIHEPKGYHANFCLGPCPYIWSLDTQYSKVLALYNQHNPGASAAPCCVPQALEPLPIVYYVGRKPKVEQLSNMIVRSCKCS

Binder | binding result (TGFβ3 (R&D Systems) [1]) | pSmad-3, IC50 (TGFβ3 (R&D Systems) [2]) [nM] | pSmad-3, IC50 (TGFβ2 (R&D Systems) [3]) [nM] | pSmad-3, IC50 (TGFβ1 (R&D Systems) [4]) [nM] | Kd (TGFβ3 (R&D Systems) [5]) [nM] | Kd (TGFβ2 (R&D Systems) [6]) [nM] | Kd (TGFβ1 (R&D Systems) [7]) [nM] | other results
B1 | no binding | – | – | – | – | – | – | –
B2 | no binding | – | – | – | – | – | – | –
B3 | no binding | – | – | – | – | – | – | –
B4 | no binding | – | – | – | – | – | – | –
B5 | no binding | – | – | – | – | – | – | –
B6 | – | 1.48 | 1.37 | 0.99 | 0.78 | 3.75 | 3.05 | –
B7 | no binding | – | – | – | – | – | – | –
B8 | – | 1.24 | 1.64 | 1.33 | 0.79 | 4.36 | 3.79 | –
B9 | no binding | – | – | – | – | – | – | –
B10 | no binding | – | – | – | – | – | – | –
B11 | – | 1.03 | 2.1 | 1.41 | 0.37 | 2.91 | 3.76 | –
B12 | – | 1.2 | 1.15 | 0.69 | 0.87 | 3.92 | 6.18 | –
B13 | no binding | – | – | – | – | – | – | –
B14 | – | 1.37 | 1.85 | 3.16 | 0.856 | 6.73 | 6.18 | –
B15 | – | – | – | – | – | – | – | Kd (TGFβ1 (R&D Systems) [8]): 0.0346 nM; CMVIC pSmad-3, IC50 (TGFβ1 (R&D Systems) [9]): 10.9 nM; Kd (TGFβ1 (R&D Systems) [10]): 0.283 nM
